US20240376151A1, “STAPLED PEPTIDES AND METHODS THEREOF” (FOG PHARMACEUTICALS, INC., priority 2022, published 2024)

Target: T1, RNF31 UBA domain (Homo sapiens, UniProt Q96EP0)
T1 construct: RNF31 UBA domain protein (residues 480-639) with N-terminal Thioredoxin-TEV-6×his-yBBr-3C tags; Thioredoxin (N, cleaved yes); made in house; host or cells: E. coli BL21 (DE3) pLysS
T1 sequence (Q96EP0 480-639): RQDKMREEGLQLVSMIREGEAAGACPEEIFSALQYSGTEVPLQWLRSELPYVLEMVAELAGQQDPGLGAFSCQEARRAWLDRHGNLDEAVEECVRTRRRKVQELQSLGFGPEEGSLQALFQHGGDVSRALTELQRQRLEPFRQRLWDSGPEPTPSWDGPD
Test: Phage Library Screening with NGS, RNF31 UBA domain
Assay type: binding
Settings: for phage screen NGS read-out at Target Concentration 10 / phage screen NGS read-out at Target Concentration 30 / phage screen NGS read-out at Target Concentration 100 / phage screen NGS read-out at Target Concentration 300: no competitor; for Phage library screen NGS readout, Target Concentration 10 / Phage library screen NGS readout, Target Concentration 30 / Phage library screen NGS readout, Target Concentration 100 / Phage library screen NGS readout, Target Concentration 300 / Phage library screen NGS readout, Target Concentration 1000: RNF31 UBA domain cluster C46; for Phage library screen NGS readout, BLANK: cluster C46

[1] = target concentration 1000, first column
[2] = target concentration 1000, second column

Row | phage screen NGS read-out at Target Concentration 10 | phage screen NGS read-out at Target Concentration 30 | phage screen NGS read-out at Target Concentration 100 | phage screen NGS read-out at Target Concentration 300 | Phage library screen NGS readout, Target Concentration 10 | Phage library screen NGS readout, Target Concentration 30 | Phage library screen NGS readout, Target Concentration 100 | Phage library screen NGS readout, Target Concentration 300 | Phage library screen NGS readout, Target Concentration 1000 [1] | Phage library screen NGS readout, Target Concentration 1000 [2] | Phage library screen NGS readout, BLANK (column 1 of 5) | Phage library screen NGS readout, BLANK (column 2 of 5) | Phage library screen NGS readout, BLANK (column 3 of 5) | Phage library screen NGS readout, BLANK (column 4 of 5) | Phage library screen NGS readout, BLANK (column 5 of 5) | Sequence
1 | 1 | 0 | 0 | 0 |  |  |  |  |  |  |  |  |  |  |  | DPADLLCHMAAQNCLYR
2 | 0 | 0 | 0 | 2 |  |  |  |  |  |  |  |  |  |  |  | DPALTHCTAAAYWCYVM
3 |  |  |  |  | 5 | 19 | 45 | 86 | 88 | 97 | 0 | 0 | 0 | 0 | 0 | DPAAQACLSAAVFCAWY
4 |  |  |  |  | 8 | 39 | 131 | 239 | 297 | 291 | 0 | 1 | 1 | 0 | 0 | DPALTNCFSAAVYCAMF
5 | 0 | 1 | 1 | 1 |  |  |  |  |  |  |  |  |  |  |  | DPAEWICEMAAHNCLYM
6 | 3 | 1 | 4 | 19 |  |  |  |  |  |  |  |  |  |  |  | DPADYICYLAANNCLYH
7 | 0 | 0 | 1 | 14 |  |  |  |  |  |  |  |  |  |  |  | DPAREHCDSAAIFCYIL
8 |  | 210 | 40 | 88 |  |  |  |  |  |  |  |  |  |  |  | DPAQRDCFSAAVYCSFL
9 | 0 | 0 | 7 | 29 |  |  |  |  |  |  |  |  |  |  |  | DPAFSTCVYAAIICNDT
10 | 1 | 0 | 2 | 7 |  |  |  |  |  |  |  |  |  |  |  | DPAFSQCVYAAWHCESL
11 | 0 | 0 | 0 | 3 |  |  |  |  |  |  |  |  |  |  |  | DPAFFTCVYAAVTCEMT
12 |  |  |  |  | 10 | 57 | 121 | 199 | 201 | 203 | 1 | 0 | 2 | 1 | 0 | DPAQRQCLSAAVWCATF
